Assay [1] addresses T1, Recombinant His‐tagged GRB2 protein (human, UniProt P62993 1-217). In words: BLI. (In BLI a coated tip is dipped into the sample, and binding shifts an interference pattern.)
Assay [2] has as its target T1, Recombinant His‐tagged GRB2 protein. Kind of assay: BLI; GRB2 preincubated with Rg3.

Here are results for one molecule from article PMC11497058 (2024).

The term Kd denotes the concentration at which binding is half-saturated.

T1 sequence (P62993 whole entry): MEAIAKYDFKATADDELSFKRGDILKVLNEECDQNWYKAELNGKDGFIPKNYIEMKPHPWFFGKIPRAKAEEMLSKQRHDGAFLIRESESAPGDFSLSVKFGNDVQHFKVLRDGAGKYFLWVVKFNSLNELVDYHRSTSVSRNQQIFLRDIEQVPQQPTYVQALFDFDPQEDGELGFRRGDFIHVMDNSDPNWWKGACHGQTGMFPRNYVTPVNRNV

B1: Recombinant His‐tagged TRKA protein (receptor)
chain: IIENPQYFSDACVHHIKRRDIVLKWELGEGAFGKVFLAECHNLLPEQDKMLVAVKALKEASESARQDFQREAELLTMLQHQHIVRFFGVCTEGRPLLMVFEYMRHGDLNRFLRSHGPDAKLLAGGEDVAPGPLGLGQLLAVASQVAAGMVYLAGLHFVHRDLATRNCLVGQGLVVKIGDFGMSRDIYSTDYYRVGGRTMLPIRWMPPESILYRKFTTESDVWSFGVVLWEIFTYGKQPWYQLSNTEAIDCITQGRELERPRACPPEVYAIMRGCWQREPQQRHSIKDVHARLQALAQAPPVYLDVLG
modifications: biotin (EZ‐Link NHS‐PEG12‐Biotin)
As for B1, the equilibrium dissociation constant (Kd) in assay [1] stood at 74.7 nM; in assay [2], 14 nM.
